Data: publication PMC2248737

T1: ttSSB (Thermus thermophilus HB8, UniProt Q5SLP9 1-263)
T1 sequence: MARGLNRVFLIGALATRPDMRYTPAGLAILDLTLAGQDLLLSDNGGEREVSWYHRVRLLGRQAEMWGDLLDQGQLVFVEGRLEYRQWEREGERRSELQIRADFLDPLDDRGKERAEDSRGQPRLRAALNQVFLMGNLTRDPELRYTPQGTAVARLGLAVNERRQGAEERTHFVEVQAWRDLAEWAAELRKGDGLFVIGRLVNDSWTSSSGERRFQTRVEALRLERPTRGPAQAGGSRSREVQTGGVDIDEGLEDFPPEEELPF

T2: ttRecR (Thermus thermophilus HB8, UniProt Q5SHY0 1-194)
T2 sequence: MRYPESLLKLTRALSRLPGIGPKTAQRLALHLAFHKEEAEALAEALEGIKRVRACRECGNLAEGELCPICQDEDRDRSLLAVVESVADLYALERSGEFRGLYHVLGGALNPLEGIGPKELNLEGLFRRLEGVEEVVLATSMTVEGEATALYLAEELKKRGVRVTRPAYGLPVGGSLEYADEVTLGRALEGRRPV


How the values were obtained:
ttSSB = molecular target: T1, ttSSB; assay: pull-down
ttRecR = molecular target: T2, ttRecR; assay: EMSA

Binder | binding result (ttSSB) | binding result (ttRecR)
60-mer ssDNA (ssDNA) DNA: GCCAAGCTTGCATGCCTGCAGGTCGACTCTAGAGGATCCCCGGGTACCGAGCTCGAATTC | binds | –
66-mer ssDNA (ssDNA) DNA: CTTATTAAAACGGCAACTCCTCCTCCGGCGGAAAGTCTTCCAAGCCTTCGTCAATGTCCACCCCAC | – | no binding
